{"source": "the supplement of paper PMC5998384", "key": {"HeLa Kyoto [1]": {"test_system": "HeLa Kyoto", "assay": "solubility in G1/S (NP-40 vs SDS abundance) (log2 ratio); higher = more soluble", "details": "cell cycle stage: G1/S"}, "HeLa Kyoto [2]": {"test_system": "HeLa Kyoto", "assay": "melting temperature (median over replicates), in situ; higher = more thermally stable"}, "HeLa Kyoto [3]": {"test_system": "HeLa Kyoto", "assay": "solubility change mitosis vs G1/S (difference of NP-40 vs SDS log2 ratios) (log2 ratio difference); higher = more soluble in mitosis"}, "HeLa Kyoto [4]": {"test_system": "HeLa Kyoto", "assay": "thermal stability score vs G1/S (z-score of summed log2 fold changes over temperatures); higher = more thermally stable than in G1/S"}, "[5]": {"details": "cell cycle stage: early G1 (4.5 h after nocodazole release)"}}}
{"sequence": "MEFLKTCVLRRNACTAVCFWRSKVVQKPSVRRISTTSPRSTVMPAWVIDKYGKNEVLRFTQNMMMPIIHYPNEVIVKVHAASVNPIDVNMRSGYGATALNMKRDPLHVKIKGEEFPLTLGRDVSGVVMECGLDVKYFKPGDEVWAAVPPWKQGTLSEFVVVSGNEVSHKPKSLTHTQAASLPYVALTAWSAINKVGGLNDKNCTGKRVLILGASGGVGTFAIQVMKAWDAHVTAVCSQDASELVRKLGADDVIDYKSGSVEEQLKSLKPFDFILDNVGGSTETWAPDFLKKWSGATYVTLVTPFLLNMDRLGIADGMLQTGVTVGSKALKHFWKGVHYRWAFFMASGPCLDDIAELVDAGKIRPVIEQTFPFSKVPEAFLKVERGHARGKTVINVV [RTN4IP1]", "values": [{"measurement": "solubility in G1/S (log2)", "setting": "HeLa Kyoto [1]", "value": -0.119}, {"measurement": "melting temperature", "setting": "HeLa Kyoto [2]; cell cycle stage: G1/S", "value": 50.7, "unit": "°C"}, {"measurement": "melting temperature", "setting": "HeLa Kyoto [2]; cell cycle stage: mitosis", "value": 51.7, "unit": "°C"}, {"measurement": "solubility change mitosis (log2)", "setting": "HeLa Kyoto [3]", "value": -0.0156}, {"measurement": "thermal stability score", "setting": "HeLa Kyoto [4]; [5]", "value": 0.632}, {"measurement": "thermal stability score", "setting": "HeLa Kyoto [4]; cell cycle stage: mitosis", "value": 1.04}]}
{"sequence": "MEFQAVVMAVGGGSRMTDLTSSIPKPLLPVGNKPLIWYPLNLLERVGFEEVIVVTTRDVQKALCAEFKMKMKPDIVCIPDDADMGTADSLRYIYPKLKTDVLVLSCDLITDVALHEVVDLFRAYDASLAMLMRKGQDSIEPVPGQKGKKKAVEQRDFIGVDSTGKRLLFMANEADLDEELVIKGSILQKHPRIRFHTGLVDAHLYCLKKYIVDFLMENGSITSIRSELIPYLVRKQFSSASSQQGQEEKEEDLKKKELKSLDIYSFIKEANTLNLAPYDACWNACRGDRWEDLSRSQVRCYVHIMKEGLCSRVSTLGLYMEANRQVPKLLSALCPEEPPVHSSAQIVSKHLVGVDSLIGPETQIGEKSSIKRSVIGSSCLIKDRVTITNCLLMNSVTVEEGSNIQGSVICNNAVIEKGADIKDCLIGSGQRIEAKAKRVNEVIVGNDQLMEI [EIF2B3]", "values": [{"measurement": "solubility in G1/S (log2)", "setting": "HeLa Kyoto [1]", "value": -0.0277}, {"measurement": "melting temperature", "setting": "HeLa Kyoto [2]; cell cycle stage: G1/S", "value": 50.5, "unit": "°C"}, {"measurement": "melting temperature", "setting": "HeLa Kyoto [2]; cell cycle stage: mitosis", "value": 50.7, "unit": "°C"}, {"measurement": "solubility change mitosis (log2)", "setting": "HeLa Kyoto [3]", "value": -0.222}, {"measurement": "thermal stability score", "setting": "HeLa Kyoto [4]; [5]", "value": -0.882}, {"measurement": "thermal stability score", "setting": "HeLa Kyoto [4]; cell cycle stage: mitosis", "value": -0.4}]}
{"sequence": "MEGGPAVCCQDPRAELVERVAAIDVTHLEEADGGPEPTRNGVDPPPRARAASVIPGSTSRLLPARPSLSARKLSLQERPAGSYLEAQAGPYATGPASHISPRAWRRPTIESHHVAISDAEDCVQLNQYKLQSEIGKGAYGVVRLAYNESEDRHYAMKVLSKKKLLKQYGFPRRPPPRGSQAAQGGPAKQLLPLERVYQEIAILKKLDHVNVVKLIEVLDDPAEDNLYLVFDLLRKGPVMEVPCDKPFSEEQARLYLRDVILGLEYLHCQKIVHRDIKPSNLLLGDDGHVKIADFGVSNQFEGNDAQLSSTAGTPAFMAPEAISDSGQSFSGKALDVWATGVTLYCFVYGKCPFIDDFILALHRKIKNEPVVFPEEPEISEELKDLILKMLDKNPETRIGVPDIKLHPWVTKNGEEPLPSEEEHCSVVEVTEEEVKNSVRLIPSWTTVILVKSMLRKRSFGNPFEPQARREERSMSAPGNLLVKEGFGEGGKSPELPGVQEDEAAS [CAMKK1]", "values": [{"measurement": "solubility in G1/S (log2)", "setting": "HeLa Kyoto [1]", "value": 0.186}, {"measurement": "melting temperature", "setting": "HeLa Kyoto [2]; cell cycle stage: mitosis", "value": 50.4, "unit": "°C"}, {"measurement": "solubility change mitosis (log2)", "setting": "HeLa Kyoto [3]", "value": 0.147}, {"measurement": "thermal stability score", "setting": "HeLa Kyoto [4]; [5]", "value": -0.286}, {"measurement": "thermal stability score", "setting": "HeLa Kyoto [4]; cell cycle stage: mitosis", "value": 0.129}]}
{"sequence": "MEGMDVDLDPELMQKFSCLGTTDKDVLISEFQRLLGFQLNPAGCAFFLDMTNWNLQAAIGAYYDFESPNISVPSMSFVEDVTIGEGESIPPDTQFVKTWRIQNSGAEAWPPGVCLKYVGGDQFGHVNMVMVRSLEPQEIADVSVQMCSPSRAGMYQGQWRMCTATGLYYGDVIWVILSVEVGGLLGVTQQLSSFETEFNTQPHRKVEGNFNPFASPQKNRQSDENNLKDPGGSEFDSISKNTWAPAPDTWAPAPDQTEQDQNRLSQNSVNLSPSSHANNLSVVTYSKGLHGPYPFGQS [C6ORF106]", "values": [{"measurement": "solubility in G1/S (log2)", "setting": "HeLa Kyoto [1]", "value": 0.214}, {"measurement": "melting temperature", "setting": "HeLa Kyoto [2]; cell cycle stage: G1/S", "value": 49.4, "unit": "°C"}, {"measurement": "solubility change mitosis (log2)", "setting": "HeLa Kyoto [3]", "value": -0.211}, {"measurement": "thermal stability score", "setting": "HeLa Kyoto [4]; [5]", "value": 0.563}, {"measurement": "thermal stability score", "setting": "HeLa Kyoto [4]; cell cycle stage: mitosis", "value": 0.668}]}
{"sequence": "MEGPAEWGPEAALGPEAVLRFLAERGGRALHAELVQHFRGALGGEPEQRARARAHFKELVNAVATVRVDPADGAKYVHLKKRFCEGPSEPSGDPPRIQVTAEPEAPDGPAGPEARDRLPDAAAPESLPGQGRELGEGEPPAPAHWPPLSAGARRKNSRRDVQPLPRTPAPGPSEDLELPPHGCEEADRGSSLVGATAQRPARQNLRDLVMGSSPQLKRSVCPGGSSPGSSSGGGRGRGGGDSDSASVASSSAEEESSGGGSVTLDPLEHAWMLSASDGKWDSLEGLLTCEPGLLVKRDFITGFTCLHWAAKHGRQELLAMLVNFANKHQLPVNIDARTSGGYTALHLAAMHGHVEVVKLLVGAYDADVDIRDYSGKKASQYLSRSIAEEIKNLVGALDEGDGESAAGSGGGRWRLSKVLPSHLITYKLSHALEDGGDHHHHHHSAEGWVGGKAKDPGRKASGSSSGRIKPRLNKIRFRTQIVHTTPSFRDPEQPLEGRGEEGVGEERPVKGHSPFTLRPKSNVFG [SOWAHC]", "values": [{"measurement": "solubility in G1/S (log2)", "setting": "HeLa Kyoto [1]", "value": 0.325}, {"measurement": "melting temperature", "setting": "HeLa Kyoto [2]; cell cycle stage: G1/S", "value": 51.2, "unit": "°C"}, {"measurement": "melting temperature", "setting": "HeLa Kyoto [2]; cell cycle stage: mitosis", "value": 49.7, "unit": "°C"}, {"measurement": "solubility change mitosis (log2)", "setting": "HeLa Kyoto [3]", "value": 0.021}, {"measurement": "thermal stability score", "setting": "HeLa Kyoto [4]; [5]", "value": 0.128}, {"measurement": "thermal stability score", "setting": "HeLa Kyoto [4]; cell cycle stage: mitosis", "value": -0.236}]}
